Test results taken from patent US20230312725A1 (JIANGSU HENGRUI PHARMACEUTICALS, published 2023).

B1: h1901-11 (antibody, human IgG1, kappa, V domains shown)
VH: EVQLVESGGGLVQPGGSLRLSCAASGFTFSDYGIHWVRQAPGKGLEWIAYISRGSSTIYYADTVKGRFTISRDNAKNSLYLQMTSLRAEDTAVYYCARGGYDTRNAMDYWGQGTTVTVSS
VL: DIVMTQSPDSLAVSLGERATISCKSSQSLLNSGNQKNYLAWYQQKPGQPPKLLIYGASTRASGVPDRFSGSGSGTDFTLTISSLQAEDVAIYHCQNDLYYPLTFGQGTKLEIKR
B2: IMAB-362 (antibody, human IgG1, kappa, V domains shown)
VH: QVQLQQPGAELVRPGASVKLSCKASGYTFTSYWINWVKQRPGQGLEWIGNIYPSDSYTNYNQKFKDKATLTVDKSSSTAYMQLSSPTSEDSAVYYCTRSWRGNSFDYWGQGTTLTVSS
VL: DIVMTQSPSSLTVTAGEKVTMSCKSSQSLLNSGNQKNYLTWYQQKPGQPPKLLIYWASTRESGVPDRFTGSGSGTDFTLTISSVQAEDLAVYYCQNDYSYPFTFGSGTKLEIKR

Target: human Claudin18.2 (human)
Test: cell-based or functional assay

Binder	ADCC effect, IC50 (ng/ml), NUGC4 cells with high Claudin18.2 expression	ADCC effect, IC50 (ng/ml), NUGC4 cells with low Claudin18.2 expression	ADCC effect, IC50 (ng/ml), NUGC4 cells with moderate Claudin18.2 expression
B1	26.2 ng/mL	22.4 ng/mL	15.3 ng/mL
B2	133 ng/mL	183 ng/mL	210 ng/mL
